# What was measured:
# Test in all cases: cell-based or functional assay
# [1] = target: monocyte chemoattractant protein-1 (human) (UniProt P13500)
# [2] = target: tissue inhibitor of metalloproteinases-1 (human) (UniProt P01033)
# [3] = target: interleukin (IL)-8 (human) (UniProt P10145)
# [4] = target: interleukin (IL)-6 (human) (UniProt P05231)
# Chain of interleukin (IL)-6 (human) (P05231 30-212 limits assumed): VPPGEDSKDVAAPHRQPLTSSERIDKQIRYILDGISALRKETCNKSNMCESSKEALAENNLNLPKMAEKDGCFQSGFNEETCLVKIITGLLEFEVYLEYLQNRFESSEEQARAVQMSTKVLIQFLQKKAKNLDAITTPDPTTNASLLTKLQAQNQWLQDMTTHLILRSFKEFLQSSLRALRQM
# Chain of interleukin (IL)-8 (human) (P10145 28-99 limits assumed): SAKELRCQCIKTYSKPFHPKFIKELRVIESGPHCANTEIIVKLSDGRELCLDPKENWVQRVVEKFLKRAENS
# Chain of tissue inhibitor of metalloproteinases-1 (human) (P01033 24-207 limits assumed): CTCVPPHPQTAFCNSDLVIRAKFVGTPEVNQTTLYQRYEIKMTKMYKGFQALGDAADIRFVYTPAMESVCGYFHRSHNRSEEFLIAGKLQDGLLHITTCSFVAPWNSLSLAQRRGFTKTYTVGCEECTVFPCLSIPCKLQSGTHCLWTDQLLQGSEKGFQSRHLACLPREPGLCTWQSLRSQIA
# Chain of monocyte chemoattractant protein-1 (human) (P13500 24-99 limits assumed): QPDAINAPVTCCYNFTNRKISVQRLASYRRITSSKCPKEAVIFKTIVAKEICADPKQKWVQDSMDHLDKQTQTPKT
substance,measurement,setting,value
MCP-1 inhibitory antibody (R&D Systems AB279NA),"decrease in in vitro ovarian cancer cell homing toward adipocytes (Matrigel plug, fluorescence)",[1],> 50%
TIMP-1-specific inhibitory antibody (R&D Systems AF970),"decrease in in vitro ovarian cancer cell homing toward adipocytes (Matrigel plug, fluorescence)",[2],> 50%
IL-8 inhibitory antibody (R&D Systems AB208NA),"decrease in in vitro ovarian cancer cell homing toward adipocytes (Matrigel plug, fluorescence)",[3],> 50%
IL-6 inhibitory antibody (R&D Systems AB206NA),"decrease in in vitro ovarian cancer cell homing toward adipocytes (Matrigel plug, fluorescence)",[4],> 50%

# Reference: US20140363522A1
